From US10961297 (SANFORD BURNHAM PREBYS MEDICAL DISCOVERY INSTITUTE, dated 2021)
Changes are numbered by the printed parent chain. Names may count otherwise.

Tests used:
human BTLA-Fc (human) [1] = target: human BTLA-Fc (human) (UniProt Q7Z6A9); experiment: SPR, human BTLA-Fc immobilised, Fc fusion as analyte, monovalent (1:1) analysis
human BTLA-Fc (human) [2] = target: human BTLA-Fc (human) (UniProt Q7Z6A9); experiment: SPR, human BTLA-Fc immobilised, Fc fusion as analyte, monovalent analysis
human BTLA-Fc (human) [3] = target: human BTLA-Fc (human) (UniProt Q7Z6A9); experiment: SPR, human BTLA-Fc immobilised, Fc fusion as analyte, bivalent analysis
[4] = target: T1, human HVEM T82P mutant on 293T cells (human, UniProt Q92956 39-283); experiment: flow cytometry, LIGHT on 293T cells with mutant HVEM
T1 construct: also called Thr^82
T1 sequence: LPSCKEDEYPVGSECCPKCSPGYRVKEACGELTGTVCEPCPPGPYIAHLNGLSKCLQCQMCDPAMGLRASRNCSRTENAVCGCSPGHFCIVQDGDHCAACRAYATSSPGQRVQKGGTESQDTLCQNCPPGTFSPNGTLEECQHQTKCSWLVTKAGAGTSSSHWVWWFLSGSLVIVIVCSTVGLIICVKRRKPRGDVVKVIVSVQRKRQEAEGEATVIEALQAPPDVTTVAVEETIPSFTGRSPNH

[5] = target: T2, human HVEM G60D mutant on 293T cells (human, UniProt Q92956 39-283); experiment: as above
T2 construct: also called Gly^60
T2 sequence: T1 sequence with G22D, P44T

[6] = target: T3, human BTLA H127D mutant on EL4 cells (human, UniProt Q7Z6A9 31-289); experiment: flow cytometry, EL4 cells transduced with mutant human BTLA, HVEM-Fc then anti-human Fc [panel B]
T3 construct: whole, on cells; also called His127

[7] = target: T4, human BTLA Q37A mutant on EL4 cells (human, UniProt Q7Z6A9 31-289); experiment: as above
T4 construct: whole, on cells; also called Gln37

[8] = target: T5, human BTLA P59A mutant on EL4 cells (human, UniProt Q7Z6A9 31-289); experiment: as above
T5 construct: whole, on cells; also called Pro59

[9] = target: T6, human BTLA R42D mutant on EL4 cells (human, UniProt Q7Z6A9 31-289); experiment: as above
T6 construct: whole, on cells; also called Arg42

[10] = target: T7, BTLA (form in the assay not stated) (UniProt Q7Z6A9 31-157); experiment: not told
T7 sequence: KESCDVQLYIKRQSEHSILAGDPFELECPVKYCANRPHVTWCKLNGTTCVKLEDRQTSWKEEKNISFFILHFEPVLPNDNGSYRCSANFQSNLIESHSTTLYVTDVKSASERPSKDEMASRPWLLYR

[11] = target: T8, wild-type human BTLA on cells (human, UniProt Q7Z6A9 31-289); experiment: co-expression on 293T cells, loss of staining by Fc ligands in trans
T8 construct: whole, on cells

[12] = target: T9, human HVEM R109W mutant on 293T cells (human, UniProt Q92956 39-283); experiment: flow cytometry, CD160-Fc on 293T cells with mutant HVEM
T9 construct: also called Arg^109
T9 sequence: T1 sequence with P44T, R71W

[13] = target: T10, human HVEM Y61C mutant on 293T cells (human, UniProt Q92956 39-283); experiment: as above
T10 construct: also called Tyr^61
T10 sequence: T1 sequence with Y23C, P44T

[14] = target: T11, human HVEM P59S mutant on 293T cells (human, UniProt Q92956 39-283); experiment: as above
T11 construct: also called Pro^59
T11 sequence: T1 sequence with P21S, P44T

[15] = target: T12, human HVEM A102P mutant on 293T cells (human, UniProt Q92956 39-283); experiment: as above
T12 construct: also called Ala^102
T12 sequence: T1 sequence with P44T, A64P

[16] = target: T1, human HVEM T82P mutant on 293T cells; experiment: as above
[17] = target: T2, human HVEM G60D mutant on 293T cells; experiment: as above
[18] = target: T13, human HVEM G72D mutant on 293T cells (human, UniProt Q92956 39-283); experiment: as above
T13 construct: also called Gly^72
T13 sequence: T1 sequence with G34D, P44T

Sequence of human BTLA-Fc (human) (Q7Z6A9 26-150 limits assumed): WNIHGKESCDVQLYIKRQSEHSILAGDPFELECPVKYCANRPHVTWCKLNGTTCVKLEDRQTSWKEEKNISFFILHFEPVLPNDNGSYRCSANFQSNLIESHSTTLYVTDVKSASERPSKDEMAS

With “human HVEM-Fc (from UniProt Q92956 39-184) (Fc fusion)” the Kd (human BTLA-Fc (human) [1]) was 177 nM, the koff (human BTLA-Fc (human) [2]) was 0.0066 s⁻¹ and the kon (human BTLA-Fc (human) [2]) was 37400 M⁻¹ s⁻¹. For the same molecule, the ka1 (human BTLA-Fc (human) [3]) was 15300 M⁻¹ s⁻¹, the ka2 (human BTLA-Fc (human) [3]) was 0.0573 M⁻¹ s⁻¹ and the kd1 (human BTLA-Fc (human) [3]) was 0.00902 s⁻¹. It also gave a kd2 (human BTLA-Fc (human) [3]) of 2.05 s⁻¹.

Work on human CMV UL144-Fc (Fc fusion) yielded a Kd (human BTLA-Fc (human) [1]) of 295 nM, a koff (human BTLA-Fc (human) [2]) of 0.00476 s⁻¹ and a kon (human BTLA-Fc (human) [2]) of 16100 M⁻¹ s⁻¹. The ka1 (human BTLA-Fc (human) [3]) was 7810 M⁻¹ s⁻¹, the ka2 (human BTLA-Fc (human) [3]) was 1.39e-05 and the kd1 (human BTLA-Fc (human) [3]) was 0.0051 s⁻¹. The kd2 (human BTLA-Fc (human) [3]) was 0.00289 s⁻¹.

B1: LIGHT (ligand)
chain: DGPAGSWEQLIQERRSHEVNPAAHLTGANSSLTGSGGPLLWETQLGLAFLRGLSYHDGALVVTKAGYYYIYSKVQLGGVGCPLGLASTITHGLYKRTPRYPEELELLVSQQSPCGRATSSSRVWWDSSFLGGVVHLEAGEKVVVRVLDERLVRLRDGTRSYFGAFMV
notes: also called TNFSF ligand LIGHT
B1: no binding [4]; no binding [5].

B2: human HVEM-Fc (Fc fusion)
chain: LPSCKEDEYPVGSECCPKCSPGYRVKEACGELTGTVCEPCPPGTYIAHLNGLSKCLQCQMCDPAMGLRASRNCSRTENAVCGCSPGHFCIVQDGDHCAACRAYATSSPGQRVQKGGTESQDTLCQNCPPGTFSPNGTLEECQHQTK
notes: also called parental HVEM-Fc; not shown: human IgG Fc region
B2: no binding [6]; no binding [7]; no binding [8]. B2: no binding [9].

B3: HVEM-RTWA (HVEM-Fc mutein with S58R, G68T, L70W and L90A) (Fc fusion)
chain: B2 chain with S20R, G30T, L32W, L52A
notes: also called RTWA mutant; HVEM^RTWA Fc; not shown: human IgG Fc region
For B3, the “fold enhancement of BTLA affinity (against HVEM-RA)” value [10] was 10 fold.

B4: wild-type human HVEM on 293T cells (receptor)
chain: T1 sequence with P44T
notes: also called TNFRSF14
B4: binds [11].

B5: CD160-Fc (Fc fusion)
chain: INITSSASQEGTRLNLICTVWHKKEEAEGFVVFLCKDRSGDCSPETSLKQLRLKRDPGIDGVGEISSQLMFTISQVTPLHSGTYQCCARSQKSGIRLQGHFFSILFTETGNYTVTGLKQRQHLEFSHNEGTLS
B5: no binding [12]; no binding [13]; no binding [14]. B5: no binding [15]; no binding [16]; no binding [17]. B5: no binding [18].
